Source: US8058396B2, “Cystatin C as an antagonist of TGF-β and methods related thereto” (National Jewish Health, priority 2003, dated 2011)
Where a SMILES comes first, the peptide text is derived from it.

What was measured:
[1] = tested on: HT1080 fibrosarcoma cells; test: HT1080 cell invasion through Matrigel matrices; assay type: cell-based, human; conditions: treatment of HT1080 cells with inhibitor
Procedure: (§1) The effect CystC and D14CystC on the invasion of HT1080 and 3T3-L1 cells was determined as described previously (42). Briefly, upper chambers were coated with 100 μl of diluted Matrigel (1:50 in serum-free media), which was allowed to evaporate to dryness overnight at room temperature. The following morning the Matrigel mixtures were rehydrated and subsequently cultured with control-, CystC-, or D14CystC-expressing HT1080 or 3T3-L1 cells at a density of 100,000 cells/chamber. Cellular invasion was stimulated by addition of 2% serum to the lower chambers. Forty-eight hr later, the cells were washed twice in ice-cold PBS and immediately fixed for 15 min with 95% ethanol. Cells remaining in the upper chambers were removed with a cotton swab, whereas those remaining in the lower chamber were stained with crystal violet. Quantifying invading cells was determined through two independent measures, which yielded identical results: (i) manual counting under a light microscope, and (ii) crystal violet dye extraction by incubation of the membranes in 10% acetic acid, followed by spectrophotometry at 590 nm.
Cathepsin B is a lysosomal cysteine proteinase that functions in intracellular protein catabolism, as well as in bone resorption, hormone activation, and antigen processing (5). During tumorigenesis, cancer cells express a cathepsin B splice variant whose protein product is secreted into the extracellular milieu (5) and localized to the leading edge of invasive tumors (19), thereby promoting cancer cell invasion and metastasis. However, recent evidence has questioned the role of intracellular versus extracellular cathepsin B in promoting cancer cell invasion (20). To distinguish between these two possibilities, human HT1080 fibrosarcoma cells that stably express the murine ecotropic receptor (21) were infected with control (i.e., GFP), CystC, or Δ14CystC retrovirus. Afterward, cells that expressed GFP were isolated by flow cytometry to establish stable polyclonal populations of control-, CystC-, and Δ14CystC-expressing HT1080 cells (data not shown). The inventor chose to study HT1080 cells because they are highly invasive, and because they express large quantities of secreted cathepsin B and comparably little CystC (22). Thus, if extracellular cathepsin B mediates HT1080 cell invasion, it was hypothesized that overexpression of secreted CystC would attenuate their invasion through synthetic basement membranes.
Briefly, GFP-, CystC-, or Δ14CystC-expressing HT0180 cells were allowed to invade through Matrigel-coated membranes for 48 hr. Data shown in FIG. 1A are the mean (±SE) of three (Δ14CystC) and nine (GFP and CystC) independent experiments presented as the percent invasion relative to GFP-expressing HT1080 cells (***, p<0.05; Student's T-Test).

[2] = tested on: NMuMG mammary epithelial cells; test: TGF-β-mediated downregulation of E-cadherin in NMuMG cells; assay type: cell-based, murine; conditions: recombinant protein treatment 10 μg/ml; TGF-β1 5 ng/ml, 36 hours; NMuMG cells
Procedure: (§2) The ability of TGF-β to alter actin cytoskeletal architecture and E-cadherin expression was monitored essentially as described (Piek et al., 1999). Briefly, control-, CystC-, or Δ14CystC-expressing NMuMG cells were allowed to adhere overnight to glass coverslips in 24-well plates (50,000 cells/well). The cells were stimulated the following day with TGF-β1 (5 ng/ml) for 0-36 hours at 37° C. In some experiments, control NMuMG cells were stimulated with TGF-β1 in the absence or presence of 10 μg/ml of recombinant GST, GST-CystC, or GST-Δ14CystC. Upon completion of agonist stimulation, the cells were washed in ice-cold PBS and immediately fixed in 3.7% formaldehyde. After extensive washing in PBS, the cells were blocked in PBS supplemented with 1.5% FBS, followed by incubation with rhodamine-phalloidin (0.25 μM). […]
The ability of TGF-β to alter E-cadherin expression also was monitored by immunoprecipitating E-cadherin from Buffer H/1% Triton X-100-solubilized (Schiemann et al., 2003) NMuMG whole cell extracts, followed by immunoblotting with anti-E-cadherin antibodies (1:1000 dilution).
(§3) To test this hypothesis, the inventor first examined whether CystC and a CystC mutant impaired in its ability to inhibit cathepsin protease activity (i.e., Δ14CystC) could antagonize TGF-β stimulation of EMT in MECs. […] TGF-β stimulation of EMT is studied routinely in murine NMuMG MECs, which readily undergo EMT when treated with TGF-β (Piek et al., 1999; Miettinen et al., 1994; Gotzmann et al., 2004). […] E-cadherin expression was monitored by indirect immunofluorescence with anti-E-cadherin antibodies.
In another experiment, NMuMG cells were infected with ecotropic retrovirus encoding either GFP (i.e., control), CystC, or Δ14CystC, and subsequently were isolated by FACS-sorting for GFP expression to yield stable polyclonal populations of control, CystC, and Δ14CystC-expressing cells. The expression and secretion of recombinant CystC proteins by infected NMuMG and NRK cells was monitored by immunoblotting conditioned-media with anti-CystC antibodies. […]

[3] = tested on: NMuMG mammary epithelial cells; test: TGF-β-stimulated actin cytoskeletal reorganization (EMT) in NMuMG cells, rhodamine-phalloidin immunofluorescence; assay type: cell-based, murine; conditions: recombinant protein treatment 10 μg/ml; TGF-β1 5 ng/ml; NMuMG cells
Procedure: as §2, §3
In another experiment, NMuMG cells were infected with ecotropic retrovirus encoding either GFP (i.e., control), CystC, or Δ14CystC, and subsequently were isolated by FACS-sorting for GFP expression to yield stable polyclonal populations of control, CystC, and Δ14CystC-expressing cells. The expression and secretion of recombinant CystC proteins by infected NMuMG and NRK cells was monitored by immunoblotting conditioned-media with anti-CystC antibodies. […] Next, the control, CystC-, and Δ14CystC-expressing NMuMG cells were incubated in the absence or presence of TGF-β1 (5 ng/ml) for 36 hours, whereupon E-cadherin expression was monitored by immunoblotting with anti-E-Cadherin antibodies. […]

TGF-β signaling = test: p3TP-luciferase reporter gene assay in 3T3-L1 cells; assay type: cell-based, murine; conditions: recombinant protein 10 mg/ml; TGF-β1 5 ng/ml; 3T3-L1 cells; p<0.05
Procedure: Analysis of luciferase activity driven by the synthetic p3TP reporter ((26); generously provided by Dr. Joan Massague, Sloan Kettering) was performed as described previously (42). Briefly, control, CystC-, or Δ14CystC-expressing 3T3-L1 or HT1080 cells were cultured onto 24-well plates at a density of 45,000 cells/well and allowed to adhere overnight. The cells were transiently transfected the following morning by overnight exposure to LT1 liposomes (Mirus) containing 300 ng/well p3TP-luciferase and 100 ng/well of pCMV-β-gal. Afterward, the cells were washed twice with PBS and stimulated overnight in serum-free media with increasing concentrations of TGF-β1 as indicated. The following morning, luciferase and β-gal activities contained in detergent-solubilized cell extracts were determined.
In some experiments, the effects of recombinant CystC and D14CystC on p3TP-luciferase activity 3T3-L1 cells was determined. […] All subsequent procedures were performed as described above.
The present inventor's findings that TGF-β signaling was inhibited by CystC (FIGS. 1 and 2) independent of its actions on cathepsin B lead them to hypothesize CystC as a general antagonist of TGF-β signaling. To test this hypothesis, changes in p3TP-driven luciferase activity were monitored in control, CystC-, Δ14CystC-expressing cells before and after their stimulation with TGF-β. Briefly, GFP-, CystC-, or Δ14CystC-expressing 3T3-L1 cells were transiently transfected with p3TP-luciferase and pCMV-β-gal, and subsequently stimulated with increasing concentrations of TGF-β1 (0-5 ng/ml) as indicated in FIG. 3A. Afterward, luciferase and β-gal activities contained in detergent-solubilized cell extracts were measured. […] Data are the mean (±SE) luciferase activities of four independent experiments normalized to untreated GFP-expressing cells.
The transfectants were then stimulated with TGF-β1 (5 ng/ml) in the absence or presence of recombinant (10 mg/ml) GST, GST-CystC, or GST-D14CystC as indicated in FIG. 3B. […]

3T3-L1 fibroblasts = test: 3T3-L1 cell invasion through Matrigel matrices; assay type: cell-based, murine; conditions: recombinant protein 10 mg/ml; TGF-β1 5 ng/ml; 48 hr
Procedure: as §1
In some experiments, the effects of recombinant CystC and D14CystC on 3T3-L1 cell invasion was examined. To do so, 3T3-L1 cells (100,000 cells/chamber) were allowed to invade through Matrigel […], together with or without 5 ng/ml of TGF-β1. All subsequent procedures were performed as described above.
GFP-, CystC-, or Δ14CystC-expressing 3T3-L1 cells were allowed to invade through Matrigel-coated filters in the absence or presence of TGF-β1 (5 ng/ml) for 48 hr, and the results are shown in FIG. 2A. […] Data are the mean (±SE) of four independent experiments presented as the percent invasion relative to GFP-expressing 3T3-L1 cells.
Moreover, the inhibitory effects of CystC on 3T3-L1 cell invasion could be recapitulated by addition of recombinant CystC fusion proteins. Control or TGF-β1-stimulated (5 ng/ml) 3T3-L1 cells were allowed to invade through Matrigel-coated filters for 48 hr in the absence or presence of recombinant (10 mg/ml) GST, GST-CystC, or GST-D14CystC as indicated in FIG. 2B. […] Data are the mean (±SE) of three independent experiments presented as the percent invasion relative to untreated 3T3-L1 cells. […] Collectively, these findings indicate that 3T3-L1 cell invasion proceeds through cathepsin B-dependent and TGF-β-dependent pathways.

[4] = tested on: TGF-β receptors (TβR-I, TβR-II, TβR-III); test: Iodinated TGF-β1 radioligand binding and cross-linking assay on Mv1Lu cells; parameters: species or system mink; conditions: [125I]TGF-β1 200 pM, recombinant protein 0-10 μg/ml, 3 hr at 4° C.
Procedure: Mink lung Mv1Lu epithelial cells were plated onto 6-well plates and grown until 90% confluency. The radioligand binding and cross-linking of iodinated TGF-β1 (200 pM) to Mv1Lu cells in the absence or presence of increasing concentration of recombinant GST-Jun(1-79) or -CystC was performed as described previously (44). Afterward, cytokine:receptor complexes contained in detergent-solubilized whole cell extracts were isolated by immunoprecipitation with anti-TβR-II antibodies as described previously (44). TGF-β1 bound to cell surface TβR-I, TβR-II, and TβR-III was visualized by exposure of the dried gels to a phosphor screen, which were developed 1-3 d later on a Molecular Dynamic Typhoon Scanner. Total bound TGF-β1 was defined as the sum of signal intensities for TGF-β1 cross-linked to TβR-I, TβR-II, and TβR-III in each condition.
Mink lung Mv1Lu epithelial cells were incubated for 3 hr at 4° C. with [125I]TGF-β1 (200 pM) in the absence or presence of increasing concentrations (0-10 μg/ml; 0, 0.5, 1, 5, 10) of recombinant Jun(1-79) or CystC. Cytokine:receptor complexes were cross-linked by addition of disuccinimidyl suberate, and subsequently isolated from detergent-solubilized whole cell extracts by immunoprecipitation with anti-TβR-II antibodies. […]

CCCNC(=O)[C@H]1O[C@@H]1C(=O)N[C@H](C(=O)N1CCC[C@H]1C(=O)OC)[C@@H](C)CC [CA-074ME, reference compound]
HT1080 cell invasiveness ([1]; n=3): 101.0±5.6 % of control

CC(=O)N[C@@H](CC(C)C)C(=O)N[C@H](C(=O)N[C@H](C=O)CCCCN)C(C)C [cathepsin B inhibitor II, reference compound] (Ac-Leu-Val-Lys-aldehyde)
reduction of HT1080 cell invasion through Matrigel matrices ([1]; n=3, p<0.05): 47.1±8.5%

B1: recombinant Δ14CystC: GST-CystC fusion protein with residues 80-93 deleted by site-directed mutagenesis, purified from E. coli (protein)
chain: MAGPLRAPLLLLAILAVALAVSPAAGSSPGKPPRLVGGPMDASVEEEGVRRALDFAVGEYNKASNDMYHSRALQVVRARLGRTTCTKTQPNLDNCPFHDQPHLKRKAFCSFQIYAVPWQGTMTLSKSTCQDA
modifications: left off: small tags and cut ends
notes: GST-CystC fusion protein with residues 80-93 deleted by site-directed mutagenesis, purified from E. coli
TGF-β-mediated downregulation of E-cadherin [2]: antagonized
actin cytoskeletal reorganization stimulated by TGF-β [3]: prevented
luciferase activity stimulated by TGF-β (p3TP) (TGF-β signaling): significantly inhibited
3T3-L1 cell invasion stimulated by serum:TGF-β (3T3-L1 fibroblasts): selectively blocked

B2: recombinant Jun(1-79): recombinant GST-Jun(1-79) fusion protein, control in the TGF-β1 binding assay (protein)
chain: MTAKMETTFYDDALNASFLPSESGPYGYSNPKILKQSMTLNLADPVGSLKPHLRAKNSDLLTSPDVGLLKLASPELERL
modifications: left off: a dimerising Fc or GST
binding of iodinated TGF-β1 to its cell surface receptors [4]: no effect
